Assay results from article PMC7063977, “Improving the Thermostability of Rhizopus chinensis Lipase Through Site-Directed Mutagenesis Based on B-Factor Analysis” (Frontiers in Microbiology, 2020).

B1: Lipr27RCL (Rhizopus microsporus var. chinensis) (protein)
chain: DTETVGGMTLDLPENPPPIPATSTAPSSDSGEVVTATAAQIKELTNYAGVAATAYCRSVVPGTKWDCKQCLKYVPDGKLIKTFTSLLTDTNGFILRSDAQKTIYVTFRGTNSFRSAITDMVFTFTDYSPVKGAKVHAGFLSSYNQVVKDYFPVVQDQLTAYPDYKVIVTGHSLGGAQALLAGMDLYQREKRLSPKNLSIYTVGCPRVGNNAFAYYVDSTGIPFHRTVHKRDIVPHVPPQAFGYLHPGVESWIKEDPADVQICTSNIETKQCSNSIVPFTSIADHLTYFGINEGSCL

Experiments:
[1] = system: CCCCCCCCCCCCCCCC(=O)Oc1ccc([N+](=O)[O-])cc1; test: p-nitrophenol release, Lineweaver-Burk; format: biochemical, Rhizopus microsporus; settings: Tris-HCl pH 9, 37 °C, substrate 4-PNN [sic], 4-NPP in materials, apparent Km
Text: (§1) p-nitrophenol release, Lineweaver-Burk on Lipr27RCL

[2] = substrate: CCCCCCCCCCCCCCCC(=O)Oc1ccc([N+](=O)[O-])cc1; test: p-nitrophenol release, Lineweaver-Burk; format: biochemical, Rhizopus microsporus; settings: Tris-HCl pH 9, 37 °C, substrate 4-PNN [sic], 4-NPP in materials, apparent Km; remark: listed apart in the source
Text: as §1

Molecule	Km [1]	Vmax [1]	kcat [1]	kcat/Km [1]	Km [2]	Vmax [2]	kcat [2]	kcat/Km [2]
Lipr27RCL (Rhizopus microsporus var. chinensis; D159T)	380 ± 50 µM	709 µmol/min/mg	187 ± 16.3 s⁻¹	491000 M⁻¹ s⁻¹				
Lipr27RCL (Rhizopus microsporus var. chinensis; K157N)	290 ± 90 µM	588 µmol/min/mg	185 ± 18.5 s⁻¹	637000 M⁻¹ s⁻¹				
Lipr27RCL (Rhizopus microsporus var. chinensis; K161T)	290 ± 60 µM	714 µmol/min/mg	188 ± 13.7 s⁻¹	648000 M⁻¹ s⁻¹				
Lipr27RCL (Rhizopus microsporus var. chinensis; W158I)	450 ± 40 µM	500 µmol/min/mg	132 ± 19.4 s⁻¹	292000 M⁻¹ s⁻¹				
B1					360 ± 60 µM	714 µmol/min/mg	188 ± 18.2 s⁻¹	522000 M⁻¹ s⁻¹
